Test results as given in patent publication US20160272683A1 (Novo Nordisk, published 2016).
Numbered stars: 1 amine (or outer) side, 2 acyl side, 3 side chain; on linkers, the order of the positions; unused ones are H or OH. * marks the point of attachment. C20 diacid = O=C(O)CCCCCCCCCCCCCCCCCCC(=O)*; C18 diacid = O=C(O)CCCCCCCCCCCCCCCCC(=O)*; γGlu = O=C(O)[C@H](CCC(=O)[*:2])N[*:1]

T1: human amylin 3(a) receptor (human calcitonin receptor co-expressed with RAMP-3) (human, UniProt P30988 25-474; O60896 24-148, limits assumed)
T1 sequence (looked up) 1: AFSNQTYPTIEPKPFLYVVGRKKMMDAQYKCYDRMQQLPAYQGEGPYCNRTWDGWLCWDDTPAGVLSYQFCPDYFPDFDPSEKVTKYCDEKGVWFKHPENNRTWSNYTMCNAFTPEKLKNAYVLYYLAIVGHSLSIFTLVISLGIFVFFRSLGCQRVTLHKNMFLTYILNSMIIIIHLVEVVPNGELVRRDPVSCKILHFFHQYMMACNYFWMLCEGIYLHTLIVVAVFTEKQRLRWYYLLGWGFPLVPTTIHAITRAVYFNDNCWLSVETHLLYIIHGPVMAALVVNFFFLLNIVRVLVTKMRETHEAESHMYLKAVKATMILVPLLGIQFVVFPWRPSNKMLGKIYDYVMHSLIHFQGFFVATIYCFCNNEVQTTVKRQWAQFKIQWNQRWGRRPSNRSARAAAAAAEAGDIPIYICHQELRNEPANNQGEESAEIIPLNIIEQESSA
T1 sequence (looked up) 2: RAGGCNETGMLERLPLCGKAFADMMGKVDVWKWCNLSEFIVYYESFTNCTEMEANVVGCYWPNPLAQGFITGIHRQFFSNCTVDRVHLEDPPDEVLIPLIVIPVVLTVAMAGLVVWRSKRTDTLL

T2: human calcitonin receptor (human, UniProt P30988 25-474)
T2 sequence (looked up): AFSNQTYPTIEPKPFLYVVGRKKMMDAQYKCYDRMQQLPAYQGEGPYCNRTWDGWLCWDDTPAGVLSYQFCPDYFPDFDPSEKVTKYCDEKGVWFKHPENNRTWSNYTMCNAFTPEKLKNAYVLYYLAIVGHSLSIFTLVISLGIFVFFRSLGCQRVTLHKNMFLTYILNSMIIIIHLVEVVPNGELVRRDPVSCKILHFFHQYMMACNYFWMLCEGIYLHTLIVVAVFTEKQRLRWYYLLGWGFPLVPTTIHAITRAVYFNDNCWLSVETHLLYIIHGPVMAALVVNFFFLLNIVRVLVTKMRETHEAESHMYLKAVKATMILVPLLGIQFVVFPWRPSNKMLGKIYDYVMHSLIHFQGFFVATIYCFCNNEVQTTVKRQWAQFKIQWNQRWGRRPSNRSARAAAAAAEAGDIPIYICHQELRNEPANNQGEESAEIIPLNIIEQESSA


Legend:
[1] = target: T1, human amylin 3(a) receptor (human …); assay: cell-based or functional assay
[2] = target: T2, human calcitonin receptor; assay: cell-based or functional assay

Binder | hAmylin-R funct. EC50 (pM) [1] [pM] | hCTR funct. EC50 (pM) [2] [pM]
{C20 diacid-γGlu}-LSQLSTLVLGRLSQRLHRLQTYPRTQTGSQTY-NH2 (SMILES CC(C)C[C@H](NC(=O)CC[C@H](NC(=O)CCCCCCCCCCCCCCCCCCC(=O)O)C(=O)O)C(=O)N[C@@H](CO)C(=O)N[C@@H](CCC(N)=O)C(=O)N[C@@H](CC(C)C)C(=O)N[C@@H](CO)C(=O)N[C@H](C(=O)N[C@@H](CC(C)C)C(=O)N[C@H](C(=O)N[C@@H](CC(C)C)C(=O)NCC(=O)N[C@@H](CCCNC(=N)N)C(=O)N[C@@H](CC(C)C)C(=O)N[C@@H](CO)C(=O)N[C@@H](CCC(N)=O)C(=O)N[C@@H](CCCNC(=N)N)C(=O)N[C@@H](CC(C)C)C(=O)N[C@@H](Cc1c[nH]cn1)C(=O)N[C@@H](CCCNC(=N)N)C(=O)N[C@@H](CC(C)C)C(=O)N[C@@H](CCC(N)=O)C(=O)N[C@H](C(=O)N[C@@H](Cc1ccc(O)cc1)C(=O)N1CCC[C@H]1C(=O)N[C@@H](CCCNC(=N)N)C(=O)N[C@H](C(=O)N[C@@H](CCC(N)=O)C(=O)N[C@H](C(=O)NCC(=O)N[C@@H](CO)C(=O)N[C@@H](CCC(N)=O)C(=O)N[C@H](C(=O)N[C@@H](Cc1ccc(O)cc1)C(N)=O)[C@@H](C)O)[C@@H](C)O)[C@@H](C)O)[C@@H](C)O)C(C)C)[C@@H](C)O) | 10 | 12
{C20 diacid-γGlu}-ASQLSTAVLGRLSQRLHRLQTYPRTQTGSQTY-NH2 (SMILES CC(C)C[C@H](NC(=O)[C@H](CCCNC(=N)N)NC(=O)CNC(=O)[C@H](CC(C)C)NC(=O)[C@@H](NC(=O)[C@H](C)NC(=O)[C@@H](NC(=O)[C@H](CO)NC(=O)[C@H](CC(C)C)NC(=O)[C@H](CCC(N)=O)NC(=O)[C@H](CO)NC(=O)[C@H](C)NC(=O)CC[C@H](NC(=O)CCCCCCCCCCCCCCCCCCC(=O)O)C(=O)O)[C@@H](C)O)C(C)C)C(=O)N[C@@H](CO)C(=O)N[C@@H](CCC(N)=O)C(=O)N[C@@H](CCCNC(=N)N)C(=O)N[C@@H](CC(C)C)C(=O)N[C@@H](Cc1c[nH]cn1)C(=O)N[C@@H](CCCNC(=N)N)C(=O)N[C@@H](CC(C)C)C(=O)N[C@@H](CCC(N)=O)C(=O)N[C@H](C(=O)N[C@@H](Cc1ccc(O)cc1)C(=O)N1CCC[C@H]1C(=O)N[C@@H](CCCNC(=N)N)C(=O)N[C@H](C(=O)N[C@@H](CCC(N)=O)C(=O)N[C@H](C(=O)NCC(=O)N[C@@H](CO)C(=O)N[C@@H](CCC(N)=O)C(=O)N[C@H](C(=O)N[C@@H](Cc1ccc(O)cc1)C(N)=O)[C@@H](C)O)[C@@H](C)O)[C@@H](C)O)[C@@H](C)O) [[N-terminal(C20 diacid-gGlu), des1, 4Q, 9V, 15Q, 16R, 19R, 21Q, 23Y, 27Q, 30S, 31Q, 32T, 33Y]mimylin] | 16 | 15
{C20 diacid-γGlu}-ELSGLSTLVLGRLSQELHELQTYPRTGTGSGTY-NH2 (SMILES CC(C)C[C@H](NC(=O)CNC(=O)[C@H](CO)NC(=O)[C@H](CC(C)C)NC(=O)[C@H](CCC(=O)O)NC(=O)CC[C@H](NC(=O)CCCCCCCCCCCCCCCCCCC(=O)O)C(=O)O)C(=O)N[C@@H](CO)C(=O)N[C@H](C(=O)N[C@@H](CC(C)C)C(=O)N[C@H](C(=O)N[C@@H](CC(C)C)C(=O)NCC(=O)N[C@@H](CCCNC(=N)N)C(=O)N[C@@H](CC(C)C)C(=O)N[C@@H](CO)C(=O)N[C@@H](CCC(N)=O)C(=O)N[C@@H](CCC(=O)O)C(=O)N[C@@H](CC(C)C)C(=O)N[C@@H](Cc1c[nH]cn1)C(=O)N[C@@H](CCC(=O)O)C(=O)N[C@@H](CC(C)C)C(=O)N[C@@H](CCC(N)=O)C(=O)N[C@H](C(=O)N[C@@H](Cc1ccc(O)cc1)C(=O)N1CCC[C@H]1C(=O)N[C@@H](CCCNC(=N)N)C(=O)N[C@H](C(=O)NCC(=O)N[C@H](C(=O)NCC(=O)N[C@@H](CO)C(=O)NCC(=O)N[C@H](C(=O)N[C@@H](Cc1ccc(O)cc1)C(N)=O)[C@@H](C)O)[C@@H](C)O)[C@@H](C)O)[C@@H](C)O)C(C)C)[C@@H](C)O) [[N-terminal(C20 diacid-gGlu), 2L, 4G, 8L, 9V, 15Q, 21Q, 23Y, 27G, 30S, 31G, 32T, 33Y]mimylin] | 25 | 25
{C20 diacid-γGlu}-ASGLSTATLGRLSQELHELQTYPPTETGSGTY-NH2 (SMILES CC(C)C[C@H](NC(=O)CNC(=O)[C@H](CO)NC(=O)[C@H](C)NC(=O)CC[C@H](NC(=O)CCCCCCCCCCCCCCCCCCC(=O)O)C(=O)O)C(=O)N[C@@H](CO)C(=O)N[C@H](C(=O)N[C@@H](C)C(=O)N[C@H](C(=O)N[C@@H](CC(C)C)C(=O)NCC(=O)N[C@@H](CCCNC(=N)N)C(=O)N[C@@H](CC(C)C)C(=O)N[C@@H](CO)C(=O)N[C@@H](CCC(N)=O)C(=O)N[C@@H](CCC(=O)O)C(=O)N[C@@H](CC(C)C)C(=O)N[C@@H](Cc1c[nH]cn1)C(=O)N[C@@H](CCC(=O)O)C(=O)N[C@@H](CC(C)C)C(=O)N[C@@H](CCC(N)=O)C(=O)N[C@H](C(=O)N[C@@H](Cc1ccc(O)cc1)C(=O)N1CCC[C@H]1C(=O)N1CCC[C@H]1C(=O)N[C@H](C(=O)N[C@@H](CCC(=O)O)C(=O)N[C@H](C(=O)NCC(=O)N[C@@H](CO)C(=O)NCC(=O)N[C@H](C(=O)N[C@@H](Cc1ccc(O)cc1)C(N)=O)[C@@H](C)O)[C@@H](C)O)[C@@H](C)O)[C@@H](C)O)[C@@H](C)O)[C@@H](C)O) [[N-terminal(C20 diacid-gGlu), des1, 4G, 9T, 15Q, 21Q, 23Y, 25P, 30S, 31G, 32T, 33Y]mimylin] | 23 | 19
{C20 diacid-γGlu}-LSGLSTAVLGRLSQELHELQTYPRTETGSQTY-NH2 (SMILES CC(C)C[C@H](NC(=O)CC[C@H](NC(=O)CCCCCCCCCCCCCCCCCCC(=O)O)C(=O)O)C(=O)N[C@@H](CO)C(=O)NCC(=O)N[C@@H](CC(C)C)C(=O)N[C@@H](CO)C(=O)N[C@H](C(=O)N[C@@H](C)C(=O)N[C@H](C(=O)N[C@@H](CC(C)C)C(=O)NCC(=O)N[C@@H](CCCNC(=N)N)C(=O)N[C@@H](CC(C)C)C(=O)N[C@@H](CO)C(=O)N[C@@H](CCC(N)=O)C(=O)N[C@@H](CCC(=O)O)C(=O)N[C@@H](CC(C)C)C(=O)N[C@@H](Cc1c[nH]cn1)C(=O)N[C@@H](CCC(=O)O)C(=O)N[C@@H](CC(C)C)C(=O)N[C@@H](CCC(N)=O)C(=O)N[C@H](C(=O)N[C@@H](Cc1ccc(O)cc1)C(=O)N1CCC[C@H]1C(=O)N[C@@H](CCCNC(=N)N)C(=O)N[C@H](C(=O)N[C@@H](CCC(=O)O)C(=O)N[C@H](C(=O)NCC(=O)N[C@@H](CO)C(=O)N[C@@H](CCC(N)=O)C(=O)N[C@H](C(=O)N[C@@H](Cc1ccc(O)cc1)C(N)=O)[C@@H](C)O)[C@@H](C)O)[C@@H](C)O)[C@@H](C)O)C(C)C)[C@@H](C)O) [[N-terminal(C20 diacid-gGlu), des1, 2L, 4G, 9V, 15Q, 21Q, 23Y, 30S, 31Q, 32T, 33Y]mimylin] | 31 | 31
{C20 diacid-γGlu}-ASGLSTAVLGKLSQELHELQTYPPTETGSGTY-NH2 (SMILES CC(C)C[C@H](NC(=O)CNC(=O)[C@H](CO)NC(=O)[C@H](C)NC(=O)CC[C@H](NC(=O)CCCCCCCCCCCCCCCCCCC(=O)O)C(=O)O)C(=O)N[C@@H](CO)C(=O)N[C@H](C(=O)N[C@@H](C)C(=O)N[C@H](C(=O)N[C@@H](CC(C)C)C(=O)NCC(=O)N[C@@H](CCCCN)C(=O)N[C@@H](CC(C)C)C(=O)N[C@@H](CO)C(=O)N[C@@H](CCC(N)=O)C(=O)N[C@@H](CCC(=O)O)C(=O)N[C@@H](CC(C)C)C(=O)N[C@@H](Cc1c[nH]cn1)C(=O)N[C@@H](CCC(=O)O)C(=O)N[C@@H](CC(C)C)C(=O)N[C@@H](CCC(N)=O)C(=O)N[C@H](C(=O)N[C@@H](Cc1ccc(O)cc1)C(=O)N1CCC[C@H]1C(=O)N1CCC[C@H]1C(=O)N[C@H](C(=O)N[C@@H](CCC(=O)O)C(=O)N[C@H](C(=O)NCC(=O)N[C@@H](CO)C(=O)NCC(=O)N[C@H](C(=O)N[C@@H](Cc1ccc(O)cc1)C(N)=O)[C@@H](C)O)[C@@H](C)O)[C@@H](C)O)[C@@H](C)O)C(C)C)[C@@H](C)O) [[N-terminal(C20 diacid-gGlu), des1, 4G, 9V, 12K, 15Q, 21Q, 23Y, 25P, 30S, 31G, 32T, 33Y]mimylin] | 18 | 15
{C20 diacid-γGlu}-ASGLSTAVLGRLSQELHELQTLQTYPRTETGSQTY-NH2 (SMILES CC(C)C[C@H](NC(=O)CNC(=O)[C@H](CO)NC(=O)[C@H](C)NC(=O)CC[C@H](NC(=O)CCCCCCCCCCCCCCCCCCC(=O)O)C(=O)O)C(=O)N[C@@H](CO)C(=O)N[C@H](C(=O)N[C@@H](C)C(=O)N[C@H](C(=O)N[C@@H](CC(C)C)C(=O)NCC(=O)N[C@@H](CCCNC(=N)N)C(=O)N[C@@H](CC(C)C)C(=O)N[C@@H](CO)C(=O)N[C@@H](CCC(N)=O)C(=O)N[C@@H](CCC(=O)O)C(=O)N[C@@H](CC(C)C)C(=O)N[C@@H](Cc1c[nH]cn1)C(=O)N[C@@H](CCC(=O)O)C(=O)N[C@@H](CC(C)C)C(=O)N[C@@H](CCC(N)=O)C(=O)N[C@H](C(=O)N[C@@H](CC(C)C)C(=O)N[C@@H](CCC(N)=O)C(=O)N[C@H](C(=O)N[C@@H](Cc1ccc(O)cc1)C(=O)N1CCC[C@H]1C(=O)N[C@@H](CCCNC(=N)N)C(=O)N[C@H](C(=O)N[C@@H](CCC(=O)O)C(=O)N[C@H](C(=O)NCC(=O)N[C@@H](CO)C(=O)N[C@@H](CCC(N)=O)C(=O)N[C@H](C(=O)N[C@@H](Cc1ccc(O)cc1)C(N)=O)[C@@H](C)O)[C@@H](C)O)[C@@H](C)O)[C@@H](C)O)[C@@H](C)O)C(C)C)[C@@H](C)O) [[N-terminal(C20 diacid-gGlu), des1, 4G, 9V, 15Q, 21Q, 23aQ, 23bT, 23cY, 30S, 31Q, 32T, 33Y]mimylin] | 54 | 45
{C18 diacid}-EASELSTAALGRLSAELHELATLPRTETGPESP-OH [[N-terminal(C18 diacid), C-terminal(-)]mimylin] | 481 | 45
